Data on one substance can be found in paper PMC9746415 (Human Vaccines & Immunotherapeutics, 2022).

This series is classed as physicochemical. Particulars: pH 7.4.

Take In-house rituximab: the “SEC-HPLC % mAb Monomer” value worked out at 99.2%.
